Here are results for seven molecules from patent EP4484444A1 (Centre National de la Recherche Scientifique, dated 2025).

The chains are these.
B2: recombinant human PCPE-2 (procollagen C-proteinase enhancer 2) fused to a 6 Histidine-tag at the N-terminus (other)
chain: HHHHHHQSPERPVFTCGGILTGESGFIGSEGFPGVYPPNSKCTWKITVPEGKVVVLNFRFIDLESDNLCRYDFVDVYNGHANGQRIGRFCGTFRPGALVSSGNKMMVQMISDANTAGNGFMAMFSAAEPNERGDQYCGGLLDRPSGSFKTPNWPDRDYPAGVTCVWHIVAPKNQLIELKFEKFDVERDNYCRYDYVAVFNGGEVNDARRIGKYCGDSPPAPIVSERNELLIQFLSDLSLTADGFIGHYIFRPKKLPTTTEQPVTTTFPVTTGLKPTVALCQQKCRRTGTLEGNYCSSDFVLAGTVITTITRDGSLHATVSIINIYKEGNLAIQQAGKNMSARLTVVCKQCPLLRRGLNYIIMGQVGEDGRGKIMPNSFIMMFKTKNQKLLDALKNKQC
notes: Produced in HEK 293-T cells from pHLsec; Used as analyte and as immobilized ligand in SPR and in the activity assays; also called full-length PCPE-2

The target in test [1] is B2. Description: SPR, PCPE-2 over immobilized C-propeptide III (351 RU). In general terms: SPR reads the build-up and loss of mass on a sensor chip optically.
Test [2] addresses T1, human BMP-1 (bone morphogenetic protein-1) fused to a C-terminal Flag tag (human, UniProt P13497-2 121-730, limits assumed).
T1 construct: Produced in HEK 293-EBNA cells; also called full-length BMP-1; not shown: C-terminal Flag tag
T1 sequence (looked up): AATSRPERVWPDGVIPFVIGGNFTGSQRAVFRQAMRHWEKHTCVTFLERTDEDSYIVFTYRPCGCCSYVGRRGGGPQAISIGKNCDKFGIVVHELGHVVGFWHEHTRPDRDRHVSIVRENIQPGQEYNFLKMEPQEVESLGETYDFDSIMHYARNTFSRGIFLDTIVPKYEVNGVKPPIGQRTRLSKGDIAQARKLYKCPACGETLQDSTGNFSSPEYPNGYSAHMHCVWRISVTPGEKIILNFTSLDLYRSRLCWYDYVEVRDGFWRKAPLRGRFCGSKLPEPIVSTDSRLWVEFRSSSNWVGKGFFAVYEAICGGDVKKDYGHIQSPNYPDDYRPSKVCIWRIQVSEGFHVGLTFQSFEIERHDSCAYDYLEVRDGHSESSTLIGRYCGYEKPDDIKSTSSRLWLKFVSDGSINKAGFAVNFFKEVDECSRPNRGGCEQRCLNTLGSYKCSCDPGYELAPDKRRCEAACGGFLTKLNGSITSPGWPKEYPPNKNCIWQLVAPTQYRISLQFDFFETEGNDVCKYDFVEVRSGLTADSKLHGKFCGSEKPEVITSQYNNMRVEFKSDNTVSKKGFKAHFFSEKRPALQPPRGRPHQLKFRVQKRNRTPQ
Briefly: inhibition of BMP-1 (7 nM) cleavage of the fluorogenic peptide Mca-YVADAPK(Dnp)-OH, Morrison equation (apparent Ki).

For test [3], the target named is T1, human BMP-1 (bone morphogenetic …). Description: SPR, PCPE-2 1.56-100 nM over immobilized BMP-1 (974 RU), steady-state fit.
For test [4], the target named is CPIII-Long (model substrate derived from procollagen III). Description: cell-based or functional assay.
Test [5] concerns the target T2, mini-procollagen III (fused to a N-terminal c-myc tag) (UniProt P02461 1098-1466).
T2 construct: also called Mini-III; not shown: N-terminal c-myc tag
Briefly: SPR, CUB1CUB2* 0.78-50 nM over immobilized mini-procollagen III (435 RU).

Test [6] concerns the target T1, human BMP-1 (bone morphogenetic …). Briefly: SPR, C1-C2* 1.56-100 nM over immobilized BMP-1 (974 RU), steady-state fit.
The target is the same in test [7]. Briefly: SPR (Figure 65).
The target in test [8] is T2, mini-procollagen III (fused to a …). Description: SPR, analyte over immobilized mini-procollagen III (437 RU).
For test [9] the target is unchanged. Briefly: SPR, analyte over immobilized mini-procollagen III (435 RU).
For test [10], the target named is T1, human BMP-1 (bone morphogenetic …). Description: SPR, analyte over immobilized BMP-1 (974 RU).
For test [11], the target named is B2. Briefly: SPR, analyte over immobilized PCPE-2 (646 RU).
Test [12] has as its target T1, human BMP-1 (bone morphogenetic …). Briefly: SPR over immobilized BMP-1.

B1: C-propeptide III (C-propeptide of procollagen III) (other, UniProt P02461 1222-1466, looked up)
chain: DEPMDFKINTDEIMTSLKSVNGQIESLISPDGSRKNPARNCRDLKFCHPELKSGEYWVDPNQGCKLDAIKVFCNMETGETCISANPLNVPRKHWWTDSSAEKKHVWFGESMDGGFQFSYGNPELPEDVLDVHLAFLRLLSSRASQNITYHCKNSIAYMDQASGNVKKALKLMGSNEGEFKAEGNSKFTYTVLEDGCTKHTGEWSKTVFEYRTRKAVRLPIVDIAPYDIGGPDQEFGVDVGPVCFL
notes: domain: C-propeptide; Described as an uncleavable substrate mimic; Immobilized in SPR (351 RU); also called C-propeptide of collagen III
Take B1: the Kd (usually the equilibrium constant for the complex coming apart) in test [1] came to 45 nM.

In the case of B2, the Ki in test [2] worked out at 2.8 nM. This molecule also yielded a Kd in test [3] of 8.4 nM. In test [4], the “maximum enhancement factor of CPIII-Long processing by BMP-1 (ratios 0:1 to 6:1)” value was found to be 1.3 fold.

B3: CUB1CUB2* domains of PCPE-2 (other)
chain: GPASQSPERPVFTCGGILTGESGFIGSEGFPGVYPPNSKCTWKITVPEGKVVVLNFRFIDLESDNLCRYDFVDVYNGHANGQRIGRFCGTFRPGALVSSGNKMMVQMISDANTAGNGFMAMFSAAEPNERGDQYCGGLLDRPSGSFKTPNWPDRDYPAGVTCVWHIVAPKNQLIELKFEKFDVERDNYCRYDYVAVFNGGEVNDARRIGKYCGDSPPAPIVSERNELLIQFLSDLSLTADGFIGHYIFRPKLEVLFQ
notes: Two O-glycosylated forms are seen on the gel; also called C1-C2*; the CUB domains of PCPE-2
For the molecule B3, the Kd in test [5] is ~30 nM; in test [6], 28 nM.

B4: C1(R44A,F78A,R79D)-C2(L101A) (other)
chain: GPASQSPERPVFTCGGILTGESGFIGSEGFPGVYPPNSKCTWKITVPEGKVVVLNFAFIDLESDNLCRYDFVDVYNGHANGQRIGRFCGTADPGALVSSGNKMMVQMISDANTAGNGFMAMFSAAEPNERGDQYCGGLLDRPSGSFKTPNWPDRDYPAGVTCVWHIVAPKNQLIELKFEKFDVERDNYCRYDYVAVFNGGEVNDARRIGKYCGDSPPAPIVSERNELLIQFLSDASLTADGFIGHYIFRPKKLEHHHHHH
notes: also called C1-C2 with the combination of the 4 mutations
As for B4, the binding result in [7] is “binds”; in test [8] it was “no binding (tested: 50 nM)”.

B5: NTR domain of PCPE-2 (other, human, UniProt Q9UKZ9 297-415, looked up)
chain: CQQKCRRTGTLEGNYCSSDFVLAGTVITTITRDGSLHATVSIINIYKEGNLAIQQAGKNMSARLTVVCKQCPLLRRGLNYIIMGQVGEDGRGKIMPNSFIMMFKTKNQKLLDALKNKQC
notes: domain: NTR
On to B5, for which the binding result in test [9] is on record as “no binding (tested: 200 nM)”; in test [10], “no binding (tested: 50 nM)”.

B6: catalytic domain of BMP-1 (enzyme, UniProt P13497 121-320, looked up)
chain: AATSRPERVWPDGVIPFVIGGNFTGSQRAVFRQAMRHWEKHTCVTFLERTDEDSYIVFTYRPCGCCSYVGRRGGGPQAISIGKNCDKFGIVVHELGHVVGFWHEHTRPDRDRHVSIVRENIQPGQEYNFLKMEPQEVESLGETYDFDSIMHYARNTFSRGIFLDTIVPKYEVNGVKPPIGQRTRLSKGDIAQARKLYKCP
notes: domain: catalytic domain; also called BMP-1cat
As to B6, the binding result in test [11] is recorded as “no binding (tested: 50 nM)”.

B7: C2NTR (CUB2 and NTR domains of PCPE-2) (other)
chain: ETGHHHHHHCGGLLDRPSGSFKTPNWPDRDYPAGVTCVWHIVAPKNQLIELKFEKFDVERDNYCRYDYVAVFNGGEVNDARRIGKYCGDSPPAPIVSERNELLIQFLSDLSLTADGFIGHYIFRPKKLPTTTEQPVTTTFPVTTGLKPTVALCQQKCRRTGTLEGNYCSSDFVLAGTVITTITRDGSLHATVSIINIYKEGNLAIQQAGKNMSARLTVVCKQCPLLRRGLNYIIMGQVGEDGRGKIMPNSFIMMFKTKNQKLLDALKNKQC
notes: also called CUB2NTR
Consider B7, for which, in test [12], the binding result is recorded as “binds”.
